Measurements reported in patent publication US20210388087A1 (Chugai, published 2021).
Numbering of substitutions follows the chain as printed. One block for each binder: values may come before it.

Molecular target: T1, CD3 epsilon homodimer protein (UniProt P07766 23-126)
T1 construct: also called CD3 (CD3 epsilon)
Assay: SPR, antibody over immobilised CD3e homodimer;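 further: SPR at 25 °C with CD3 epsilon homodimer amine-coupled to a CM4 sensor chip and antibody flowed over as analyte in HBS-EP+ running buffer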

T1 sequence (P07766 23-126): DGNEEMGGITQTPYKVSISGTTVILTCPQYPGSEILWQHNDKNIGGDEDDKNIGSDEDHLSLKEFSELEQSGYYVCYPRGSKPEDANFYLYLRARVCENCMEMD

B1: CE115HA000/GLS3000 T92Y (antibody, IgG1, name in Kabat numbering, V domains shown)
VH: QVQLVESGGGVVQPGRSLRLSCAASGFTFSNAWMHWVRQAPGKGLEWVAQIKAKSNNYATYYAESVKGRFTISRDDSKNSLYLQMNSLKTEDTAVYYCRYVHYGAYYGVDAWGQGTTVTVSS
VL: DIVMTQSPLSLPVTPGEPASISCRSSQSLVHSNRNTYLHWYQQKPGQAPRLLIYKVSNRFSGVPDRFSGSGSGTDFTLKISRVEAEDVGVYYCGQGYQVPYTFGQGTKLEIK
notes: one-arm IgG1
KD ratio to GLS3000: 2.55

B3: CE115HA000/GLS3000 V94F (antibody, IgG1, name in Kabat numbering, V domains shown)
VH: B1 VH
VL: B1 VL with Y97T, V99F
notes: one-arm IgG1
KD ratio to GLS3000: 1.75

B4: CE115HA000/GLS3000 V27cY (antibody, IgG1, name in Kabat numbering, V domains shown)
VH: B1 VH
VL: B1 VL with V30Y, Y97T
notes: one-arm IgG1
KD ratio to GLS3000: 1.25

B5: CE115HA000/GLS3000 V94H (antibody, IgG1, name in Kabat numbering, V domains shown)
VH: B1 VH
VL: B1 VL with Y97T, V99H
notes: one-arm IgG1
KD ratio to GLS3000: 1.16

B6: CE115HA000/GLS3000 V27cE (antibody, IgG1, name in Kabat numbering, V domains shown)
VH: B1 VH
VL: B1 VL with V30E, Y97T
notes: one-arm IgG1
KD ratio to GLS3000: 1.1

B7: CE115HA000/GLS3000 V51E (antibody, IgG1, name in Kabat numbering, V domains shown)
VH: B1 VH
VL: B1 VL with V56E, Y97T
notes: one-arm IgG1
KD ratio to GLS3000: 0.88

B8: CE115HA000/GLS3000 V51D (antibody, IgG1, name in Kabat numbering, V domains shown)
VH: B1 VH
VL: B1 VL with V56D, Y97T
notes: one-arm IgG1
KD ratio to GLS3000: 1.5

B12: CE115HA000/GLS3000 V27cP (antibody, IgG1, name in Kabat numbering, V domains shown)
VH: B1 VH
VL: B1 VL with V30P, Y97T
notes: one-arm IgG1
KD ratio to GLS3000: 3.71

B14: CE115HA000/GLS3000 V94I (antibody, IgG1, name in Kabat numbering, V domains shown)
VH: B1 VH
VL: B1 VL with Y97T, V99I
notes: one-arm IgG1
KD ratio to GLS3000: 1.46

B16: CE115HA000/GLS3000 V94D (antibody, IgG1, name in Kabat numbering, V domains shown)
VH: B1 VH
VL: B1 VL with Y97T, V99D
notes: one-arm IgG1
KD ratio to GLS3000: 1.05

B19: CE115HA000/GLS3000 V27cD (antibody, IgG1, name in Kabat numbering, V domains shown)
VH: B1 VH
VL: B1 VL with V30D, Y97T
notes: one-arm IgG1
KD ratio to GLS3000: 3.21

B20: CE115HA000/GLS3000 V94E (antibody, IgG1, name in Kabat numbering, V domains shown)
VH: B1 VH
VL: B1 VL with Y97T, V99E
notes: one-arm IgG1
KD ratio to GLS3000: 1.18

B21: CE115HA000/GLS3000 T97P (antibody, IgG1, name in Kabat numbering, V domains shown)
VH: B1 VH
VL: B1 VL with Y97T, T102P
notes: one-arm IgG1
KD ratio to GLS3000: 3.35

B23: CE115HA000/GLS3000 V51G (antibody, IgG1, name in Kabat numbering, V domains shown)
VH: B1 VH
VL: B1 VL with V56G, Y97T
notes: one-arm IgG1
KD ratio to GLS3000: 0.83

B24: CE115HA000/GLS3000 V51P (antibody, IgG1, name in Kabat numbering, V domains shown)
VH: B1 VH
VL: B1 VL with V56P, Y97T
notes: one-arm IgG1
KD ratio to GLS3000: 6

B25: CE115HA000/GLS3000 V27cL (antibody, IgG1, name in Kabat numbering, V domains shown)
VH: B1 VH
VL: B1 VL with V30L, Y97T
notes: one-arm IgG1
KD ratio to GLS3000: 0.81

B26: CE115HA000/GLS3000 V27cS (antibody, IgG1, name in Kabat numbering, V domains shown)
VH: B1 VH
VL: B1 VL with V30S, Y97T
notes: one-arm IgG1
KD ratio to GLS3000: 3.04

B27: CE115HA000/GLS3000 V27cI (antibody, IgG1, name in Kabat numbering, V domains shown)
VH: B1 VH
VL: B1 VL with V30I, Y97T
notes: one-arm IgG1
KD ratio to GLS3000: 1.03

B30: CE115HA000/GLS3000 V94K (antibody, IgG1, name in Kabat numbering, V domains shown)
VH: B1 VH
VL: B1 VL with Y97T, V99K
notes: one-arm IgG1
KD ratio to GLS3000: 0.91

B31: CE115HA000/GLS3000 V51I (antibody, IgG1, name in Kabat numbering, V domains shown)
VH: B1 VH
VL: B1 VL with V56I, Y97T
notes: one-arm IgG1
KD ratio to GLS3000: 0.69

B32: CE115HA000/GLS3000 V94A (antibody, IgG1, name in Kabat numbering, V domains shown)
VH: B1 VH
VL: B1 VL with Y97T, V99A
notes: one-arm IgG1
KD ratio to GLS3000: 1.05

B33: CE115HA000/GLS3000 V94G (antibody, IgG1, name in Kabat numbering, V domains shown)
VH: B1 VH
VL: B1 VL with Y97T, V99G
notes: one-arm IgG1
KD ratio to GLS3000: 2.59

Continued, values first:

KD ratio to GLS3000: 0.96
B2: CE115HA000/GLS3000 V94N (antibody, IgG1, name in Kabat numbering, V domains shown)
VH: B1 VH
VL: B1 VL with Y97T, V99N
notes: one-arm IgG1

KD ratio to GLS3000: 0.81
B9: CE115HA000/GLS3000 V94S (antibody, IgG1, name in Kabat numbering, V domains shown)
VH: B1 VH
VL: B1 VL with Y97T, V99S
notes: one-arm IgG1

KD ratio to GLS3000: 1.1
B10: CE115HA000/GLS3000 V94P (antibody, IgG1, name in Kabat numbering, V domains shown)
VH: B1 VH
VL: B1 VL with Y97T, V99P
notes: one-arm IgG1

KD ratio to GLS3000: 1.06
B11: CE115HA000/GLS3000 V94T (antibody, IgG1, name in Kabat numbering, V domains shown)
VH: B1 VH
VL: B1 VL with Y97T, V99T
notes: one-arm IgG1

KD ratio to GLS3000: 3.06
B13: CE115HA000/GLS3000 V94L (antibody, IgG1, name in Kabat numbering, V domains shown)
VH: B1 VH
VL: B1 VL with Y97T, V99L
notes: one-arm IgG1

KD ratio to GLS3000: 66.8
B15: CE115HA000/GLS3000 Y32A (antibody, IgG1, name in Kabat numbering, V domains shown)
VH: B1 VH
VL: B1 VL with Y37A, Y97T
notes: one-arm IgG1

KD ratio to GLS3000: 1.11
B17: CE115HA000/GLS3000 V94R (antibody, IgG1, name in Kabat numbering, V domains shown)
VH: B1 VH
VL: B1 VL with Y97T, V99R
notes: one-arm IgG1

KD ratio to GLS3000: 2.45
B18: CE115HA000/GLS3000 V94Y (antibody, IgG1, name in Kabat numbering, V domains shown)
VH: B1 VH
VL: B1 VL with Y97T, V99Y
notes: one-arm IgG1

KD ratio to GLS3000: 1.81
B22: CE115HA000/GLS3000 V94W (antibody, IgG1, name in Kabat numbering, V domains shown)
VH: B1 VH
VL: B1 VL with Y97T, V99W
notes: one-arm IgG1

KD ratio to GLS3000: 1.1
B28: CE115HA000/GLS3000 V94Q (antibody, IgG1, name in Kabat numbering, V domains shown)
VH: B1 VH
VL: B1 VL with Y97T, V99Q
notes: one-arm IgG1

KD ratio to GLS3000: 2.74
B29: CE115HA000/GLS3000 V94M (antibody, IgG1, name in Kabat numbering, V domains shown)
VH: B1 VH
VL: B1 VL with Y97T, V99M
notes: one-arm IgG1
